Assay results as given in publication PMC11061317 (Cell Research, 2024).
Ends that are not written are not given here.

Key:
[1] = biological target: T1, bacterially purified GST-tagged Rheb (UniProt Q15382 1-184); assay: pull-down; recombinant Rheb (1 ug) and biotinylated C-tail peptide at a 1:5 molar ratio in 300 uL NETN buffer (40 mM Tris-HCl, 100 mM NaCl, 0.5% NP-40, 1 mM EDTA, 10% glycerol) with 15 uL streptavidin beads, 2 h at 4 °C; SDS-PAGE and immunoblot; conditions: both partners purified
T1 construct: Rheb, small G protein; The real-time BODIPY assays written under functional used His-tagged Rheb from E. coli instead of the GST-tagged protein; also called GST-Rheb; recombinant GST-tagged WT Rheb; source: E. coli BL21 (DE3), purified (Glutathione Sepharose 4B); not shown: GST, N-terminal, kept

[2] = biological target: T2, bacterially purified Rheb-G63V (UniProt Q15382 1-184, G63V); assay: as above; conditions: both partners purified
T2 construct: source: E. coli BL21 (DE3), purified
T2 sequence (Q15382 whole entry G63V): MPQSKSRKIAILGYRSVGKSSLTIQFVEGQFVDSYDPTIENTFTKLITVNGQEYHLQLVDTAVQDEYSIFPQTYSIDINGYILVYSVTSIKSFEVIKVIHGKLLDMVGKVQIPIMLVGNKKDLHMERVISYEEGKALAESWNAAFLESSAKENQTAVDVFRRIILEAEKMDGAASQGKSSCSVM

T1 sequence (Q15382 whole entry): as the sequence (Q15382 whole entry G63V) above, with V63G counted along it

B1: biotinylated synthetic peptide of the ATP6AP1 C-tail (12) (peptide)
peptide: HKGPTISLTQIV
modifications: also: biotinylated, position not given here
notes: the last 12 residues of ATP6AP1; also called C12; synthetic C12 peptide; source: synthetic peptide (Genscript ProBio)
B1: binds [1].

B2: biotinylated synthetic peptide of the ATP6AP1 C-tail (30) (peptide)
peptide: TYGLHMILSLKTMDRFDDHKGPTISLTQIV
modifications: also: biotinylated, position not given here
notes: ATP6AP1 C-terminal 30 amino acids (C-tail), aa 441-470; also called synthetic C-tail peptide; WT C-tail peptide; source: synthetic peptide (Genscript ProBio)
B2: binds [1]; binds [2].
